Experiments:
PD-1 = PD-1 (UniProt Q15116 25-167); experiment: PD-1 blocking assay
[1] = target: T1, recombinant human Ang2 (Biolegend) (human, UniProt O15123 19-496); experiment: ELISA
T1 chain: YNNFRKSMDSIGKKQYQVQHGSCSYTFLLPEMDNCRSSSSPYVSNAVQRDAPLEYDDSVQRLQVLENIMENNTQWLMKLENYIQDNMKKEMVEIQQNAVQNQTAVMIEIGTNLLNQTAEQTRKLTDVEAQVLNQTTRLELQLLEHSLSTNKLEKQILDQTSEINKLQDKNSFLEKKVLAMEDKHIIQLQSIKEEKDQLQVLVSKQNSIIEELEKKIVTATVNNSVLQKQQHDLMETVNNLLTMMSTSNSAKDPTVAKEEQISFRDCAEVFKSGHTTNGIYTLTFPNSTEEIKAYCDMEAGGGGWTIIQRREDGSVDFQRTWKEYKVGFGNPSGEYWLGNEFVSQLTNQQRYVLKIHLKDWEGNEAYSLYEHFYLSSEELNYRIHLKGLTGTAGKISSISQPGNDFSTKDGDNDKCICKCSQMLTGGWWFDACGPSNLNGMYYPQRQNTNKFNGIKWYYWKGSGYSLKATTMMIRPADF

[2] = target: T1, recombinant human Ang2 (Biolegend); experiment: Ang2-Tie2 blocking ELISA; Test 2
[3] = target: T1, recombinant human Ang2 (Biolegend); experiment: Ang2-Tie2 blocking ELISA; Test 1
[4] = target: T1, recombinant human Ang2 (Biolegend); experiment: Ang2-Tie2 blocking ELISA; Test 3

Sequence of PD-1 (Q15116 25-167): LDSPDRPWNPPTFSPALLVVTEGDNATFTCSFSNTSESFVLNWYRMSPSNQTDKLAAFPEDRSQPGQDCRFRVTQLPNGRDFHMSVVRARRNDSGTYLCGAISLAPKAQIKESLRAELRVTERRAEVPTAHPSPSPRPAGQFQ

B1: GS01-A (other)
heavy: QVQLVQSGAEVKKPGASVKVSCKASGYTFTSYYIHWVRQAPGQGLEWMGWIFPGSGNSKYNENFKGRVTLTADTSTSTVYMELSSLRSEDTAVYYCASETYDYGDYWGQGTLVTVSSASTKGPSVFPLAPCSRSTSESTAALGCLVKDYFPEPVTVSWNSGALTSGVHTFPAVLQSSGLYSLSSVVTVPSSSLGTKTYTCNVDHKPSNTKVDKRVESKYGPPCPPCPAPEFLGGPSVFLFPPKPKDTLMISRTPEVTCVVVDVSQEDPEVQFNWYVDGVEVHNAKTKPREEQFNSTYRVVSVLTVLHQDWLNGKEYKCKVSNKGLPSSIEKTISKAKGQPREPQVYTLPPSQEEMGGAQTNFMPMDDLEQRLYEQFILQQGGGGSGGGGSGGGGSGGGGSTNFMPMDDLEQRLYEQFILQQGLETKNQVSLTCLVKGFYPSDIAVEWESNGQPENNYKTTPPVLDSDGSFFLYSRLTVDKSRWQEGNVFSCSVMHEALHNHYTQKSLSLSLGKGGGGSGGGGSGGGGSGGGGSEVQLVESGGGLVQPGGSLRLSCAASGFTISDYWIHWVRQAPGKGLEWVAGITPAGGYTYYADSVKGRFTISADTSKNTAYLQMNSLRAEDTAVYYCARFVFFLPYAMDYWGQGTLVTVSSGGGGSGGGGSGGGGSGGGGSDIQMTQSPSSLSASVGDRVTITCRASQDVSTAVAWYQQKPGKAPKLLIYSASFLYSGVPSRFSGSGSGTDFTLTISSLQPEDFATYYCQQGYGNPFTFGQGTKVEIK
light: DIQMTQSPSFLSASVGDRVTITCKASQNVGTNVAWYQQKPGKAPKALIYSASYRYSGVPSRFSGSGSGTEFTLTISSLQPEDFATYYCQQYYSYPYTFGQGTKLEIKRTVAAPSVFIFPPSDEQLKSGTASVVCLLNNFYPREAKVQWKVDNALQSGNSQESVTEQDSKDSTYSLSSTLTLSKADYEKHKVYACEVTHQGLSSPVTKSFNRGEC
For B1, the IC50 (PD-1) was 0.272 nM and the EC50 [1] was 0.211 µg/mL.

B2: A2Z-ld (Fc fusion)
chain: ESKYGPPCPPCPAPEFLGGPSVFLFPPKPKDTLMISRTPEVTCVVVDVSQEDPEVQFNWYVDGVEVHNAKTKPREEQFNSTYRVVSVLTVLHQDWLNGKEYKCKVSNKGLPSSIEKTISKAKGQPREPQVYTLPPSQEEMGGAQTNFMPMDDLEQRLYEQFILQQGGGGSGGGGSGGGGSGGGGSTNFMPMDDLEQRLYEQFILQQGLETKNQVSLTCLVKGFYPSDIAVEWESNGQPENNYKTTPPVLDSDGSFFLYSRLTVDKSRWQEGNVFSCSVMHEALHNHYTQKSLSLSLGKGGGGGAQSDTGRPFVEMYSEIPEIIHMTEGRELVIPCRVTSPNITVTLKKFPLDTLIPDGKRIIWDSRKGFIISNATYKEIGLLTCEATVNGHLYKTNYLTHRQTNTIIDVVLSPSHGIELSVGEKLVLNCTARTELNVGIDFNWEYPSSKHQHKKLVNRDLKTQSGSEMKKFLSTLTIDGVTRSDQGLYTCAASSGLMTKKNSTFVRVHEKLE
Work on B2 yielded an IC50 [2] of 0.21 nM and an IC50 [3] of 0.19 nM.

B3: ZA2-ld (protein)
chain: SDTGRPFVEMYSEIPEIIHMTEGRELVIPCRVTSPNITVTLKKFPLDTLIPDGKRIIWDSRKGFIISNATYKEIGLLTCEATVNGHLYKTNYLTHRQTNTIIDVVLSPSHGIELSVGEKLVLNCTARTELNVGIDFNWEYPSSKHQHKKLVNRDLKTQSGSEMKKFLSTLTIDGVTRSDQGLYTCAASSGLMTKKNSTFVRVHEKESKYGPPCPPCPAPEFLGGPSVFLFPPKPKDTLMISRTPEVTCVVVDVSQEDPEVQFNWYVDGVEVHNAKTKPREEQFNSTYRVVSVLTVLHQDWLNGKEYKCKVSNKGLPSSIEKTISKAKGQPREPQVYTLPPSQEEMGGAQTNFMPMDDLEQRLYEQFILQQGGGGSGGGGSGGGGSGGGGSTNFMPMDDLEQRLYEQFILQQGLETKNQVSLTCLVKGFYPSDIAVEWESNGQPENNYKTTPPVLDSDGSFFLYSRLTVDKSRWQEGNVFSCSVMHEALHNHYTQKSLSLSLGK
B3 gave an IC50 [2] of 0.2 nM and an IC50 [4] of 0.03 nM.

B4: ZA2-ls (protein)
chain: SDTGRPFVEMYSEIPEIIHMTEGRELVIPCRVTSPNITVTLKKFPLDTLIPDGKRIIWDSRKGFIISNATYKEIGLLTCEATVNGHLYKTNYLTHRQTNTIIDVVLSPSHGIELSVGEKLVLNCTARTELNVGIDFNWEYPSSKHQHKKLVNRDLKTQSGSEMKKFLSTLTIDGVTRSDQGLYTCAASSGLMTKKNSTFVRVHEKESKYGPPCPPCPAPEFLGGPSVFLFPPKPKDTLMISRTPEVTCVVVDVSQEDPEVQFNWYVDGVEVHNAKTKPREEQFNSTYRVVSVLTVLHQDWLNGKEYKCKVSNKGLPSSIEKTISKAKGQPREPQVYTLPPSQEEMGGAQTNFMPMDDLEQRLYEQFILQQGLETKNQVSLTCLVKGFYPSDIAVEWESNGQPENNYKTTPPVLDSDGSFFLYSRLTVDKSRWQEGNVFSCSVMHEALHNHYTQKSLSLSLGK
For B4, the IC50 [4] was 0.1 nM.
